Patent US20130236473A1, “THERAPEUTIC AGENTS AND PROPHYLACTIC AGENTS FOR SYMPTOMS ACCOMPANYING AUTOIMMUNE DISEASES, INFLAMMATORY DISEASES, ALLERGY DISEASES AND ORGAN TRANSPLANTS” (OSAKA UNIVERSITY, priority 2010, published 2013)

Test system: IL-6 amplifier
Experiment: Reference Example 3: effect of growth factors on mIL-6 protein production in BC-1 cells (ELISA)
Format: cell-based, mouse
Settings: 24 hours, hIL-6/6R and mIL-17A each 50 ng/ml, growth factor added, versus none added
Description: 2×10^5 mouse BC-1 cells were cultured for 24 hours in an RPMI 1640 medium containing hIL-6/6R proteins each at 50 ng/ml and mIL-17A protein at 50 ng/ml under the condition in which 100 ng/ml of mouse EGF protein (R&D Systems, Inc.), 100 ng/ml of human HB-EGF protein (R&D Systems, Inc.), 0.1, 1, 10, or 100 ng/ml of mouse epiregulin protein (R&D Systems, Inc.), 50 ng/ml of mouse VEGF protein (R&D Systems, Inc.), 50 ng/ml of mouse FGF7 protein (R&D Systems, Inc.), or 300 ng/ml of mPDGF-CC protein (R&D Systems, Inc.) was separately added. Mouse BC-1 cells cultured under the condition in which only hIL-6/6R proteins and mIL-17A protein were added served as a control group.
After the culture, the production amount of mIL-6 protein under each condition was quantified by an ELISA method in the same manner as in Reference Example 1. FIGS. 5 and 6 show the results.

B1: FGF7 protein: mouse FGF7 protein (R&D Systems, Inc.), not a ligand of ErbB1 protein (protein, UniProt P36363 32-194, looked up)
Fibroblast growth factor 7: CNDMSPEQTATSVNCSSPERHTRSYDYMEGGDIRVRRLFCRTQWYLRIDKRGKVKGTQEMKNSYNIMEIRTVAVGIVAIKGVESEYYLAMNKEGKLYAKKECNEDCNFKELILENHYNTYASAKWTHSGGEMFVALNQKGIPVKGKKTKKEQKTAHFLPMAIT
For B1, which “production amount of mIL-6 protein” value is on record?
The value was “no significant difference”.

B2: HB-EGF protein: human HB-EGF protein (R&D Systems, Inc.), ligand of ErbB1 protein (protein)
chain: DLQEADLDLLRVTLSSKPQALATPNKEEHGKRKKKGKGLGKKRDPCLRKYKDFCIHGECKYVKELRAPSCICHPGYHGERCHGLSL
Which “production amount of mIL-6 protein” value does the source give for B2 here?
The value was “significantly (p value <0.01) increased”.
